± gives the standard deviation of the averaged measurements.
Test: total protein half-life in vivo (active degradation + dilution); higher = more stable protein
[1] = E. coli NCM3722 delta-clpP delta-lon delta-hslV, growth: N-lim chemostat, doubling time 6 h
[2] = E. coli NCM3722 delta-clpP, growth: N-lim chemostat, doubling time 6 h
[3] = E. coli NCM3722 delta-hslV, growth: N-lim chemostat, doubling time 6 h
[4] = E. coli NCM3722 delta-lon, growth: N-lim chemostat, doubling time 6 h
[5] = E. coli NCM3722 delta-smpB, growth: N-lim chemostat, doubling time 6 h
[6] = wild type E. coli NCM3722, growth: C-lim chemostat, doubling time 3 h
[7] = wild type E. coli NCM3722, growth: C-lim chemostat, doubling time 6 h
[8] = wild type E. coli NCM3722, growth: C-lim chemostat, doubling time 12 h
[9] = wild type E. coli NCM3722, growth: N-lim chemostat, doubling time 6 h
[10] = wild type E. coli NCM3722, growth: N-lim chemostat, doubling time 12 h
[11] = wild type E. coli NCM3722, growth: P-lim chemostat, doubling time 6 h
[12] = wild type E. coli NCM3722, growth: P-lim chemostat, doubling time 12 h

## MTLDLPRRFPWPTLLSVCIHGAVVAGLLYTSVHQVIELPAPAQPISVTMVTPADLEPPQAVQPPPEPVVEPEPEPEPIPEPPKEAPVVIEKPKPKPKPKPKPVKKVQEQPKRDVKPVESRPASPFENTAPARLTSSTATAATSKPVTSVASGPRALSRNQPQYPARAQALRIEGQVKVKFDVTPDGRVDNVQILSAKPANMFEREVKNAMRRWRYEPGKPGSGIVVNILFKINGTTEIQ
[1]
  total protein half-life in vivo: 3.05 ± 0.064 h
[2]
  total protein half-life in vivo: 3.18 ± 0.081 h
[3]
  total protein half-life in vivo: 2.27 ± 0.21 h
[4]
  total protein half-life in vivo: 1.79 ± 0.029 h
[5]
  total protein half-life in vivo: 2.92 ± 1.7 h
[6]
  total protein half-life in vivo: 1.93 ± 0.35 h
[7]
  total protein half-life in vivo: 3.6 ± 0.45 h
[8]
  total protein half-life in vivo: 5.81 ± 0.11 h
[9]
  total protein half-life in vivo: 2.33 ± 0.17 h
[10]
  total protein half-life in vivo: 3.29 ± 0.16 h
[11]
  total protein half-life in vivo: 3.17 ± 0.13 h
[12]
  total protein half-life in vivo: 6.09 ± 0.82 h

## MTLLASLRDWLKAQQLDAVLLSSRQNKQPHLGISTGSGYVVISRESAHILVDSRYYVEVEARAQGYQLHLLDATNTLTTIVNQIIADEQLQTLGFEGQQVSWETAHRWQSELNAKLVSATPDVLRQIKTPEEVEKIRLACGIADRGAEHIRRFIQAGMSEREIAAELEWFMRQQGAEKASFDTIVASGWRGALPHGKASDKIVAAGEFVTLDFGALYQGYCSDMTRTLLVNGEGVSAESHLLFNVYQIVLQAQLAAISAIRPGVRCQQVDDAARRVITEAGYGDYFGHNTGHAIGIEVHEDPRFSPRDTTTLQPGMLLTVEPGIYLPGQGGVRIEDVVLVTPQGAEVLYAMPKTVLLTGEA
[1]
  total protein half-life in vivo: 6.04 h
[8]
  total protein half-life in vivo: 3.72 h

## MTLPKIKQVRAWFTGGATAEKGAGGGDYHDQGANHWIDDHIATPMSKYRDYEQSRQSFGINVLGTLVVEVEAENGQTGFAVSTAGEMGCFIVEKHLNRFIEGKCVSDIKLIHDQMLSATLYYSGSGGLVMNTISCVDLALWDLFGKVVGLPVYKLLGGAVRDEIQFYATGARPDLAKEMGFIGGKMPTHWGPHDGDAGIRKDAAMVADMREKCGEDFWLMLDCWMSQDVNYATKLAHACAPYNLKWIEECLPPQQYESYRELKRNAPVGMMVTSGEHHGTLQSFRTLSETGIDIMQPDVGWCGGLTTLVEIAAIAKSRGQLVVPHGSSVYSHHAVITFTNTPFSEFLMTSPDCSTMRPQFDPILLNEPVPVNGRIHKSVLDKPGFGVELNRDCNLKRPYSH
[6]
  total protein half-life in vivo: 2.53 ± 0.29 h
[7]
  total protein half-life in vivo: 3.97 ± 0.25 h
[8]
  total protein half-life in vivo: 7.51 ± 1.1 h
[9]
  total protein half-life in vivo: > 8 h
[12]
  total protein half-life in vivo: 9.69 h

## MTLQQQIIKALGAKPQINAEEEIRRSVDFLKSYLQTYPFIKSLVLGISGGQDSTLAGKLCQMAINELRLETGNESLQFIAVRLPYGVQADEQDCQDAIAFIQPDRVLTVNIKGAVLASEQALREAGIELSDFVRGNEKARERMKAQYSIAGMTSGVVVGTDHAAEAITGFFTKYGDGGTDINPLYRLNKRQGKQLLAALACPEHLYKKAPTADLEDDRPSLPDEVALGVTYDNIDDYLEGKNVPQQVARTIENWYLKTEHKRRPPITVFDDFWKK
[1]
  total protein half-life in vivo: 4.93 ± 0.19 h
[2]
  total protein half-life in vivo: 5.28 ± 1.6 h
[3]
  total protein half-life in vivo: 4.91 ± 0.29 h
[4]
  total protein half-life in vivo: 5.15 ± 0.71 h
[5]
  total protein half-life in vivo: 4.58 ± 0.013 h
[6]
  total protein half-life in vivo: 3.37 ± 0.64 h
[7]
  total protein half-life in vivo: 6.28 ± 0.098 h
[8]
  total protein half-life in vivo: 11.06 ± 0.038 h
[9]
  total protein half-life in vivo: 4.67 ± 0.63 h
[10]
  total protein half-life in vivo: 7.98 ± 0.17 h
[11]
  total protein half-life in vivo: 5.737 ± 0.042 h
[12]
  total protein half-life in vivo: 11.6 ± 0.31 h

## MTLTASSSSRAVTNSPVVVALDYHNRDDALAFVDKIDPRDCRLKVGKEMFTLFGPQFVRELQQRGFDIFLDLKFHDIPNTAAHAVAAAADLGVWMVNVHASGGARMMTAAREALVPFGKDAPLLIAVTVLTSMEASDLVDLGMTLSPADYAERLAALTQKCGLDGVVCSAQEAVRFKQVFGQEFKLVTPGIRPQGSEAGDQRRIMTPEQALSAGVDYMVIGRPVTQSVDPAQTLKAINASLQRSA
[1]
  total protein half-life in vivo: 5.11 ± 0.11 h
[2]
  total protein half-life in vivo: 6.25 ± 2.3 h
[3]
  total protein half-life in vivo: 4.479 ± 0.025 h
[4]
  total protein half-life in vivo: 5.08 ± 0.2 h
[5]
  total protein half-life in vivo: 4.77 ± 0.33 h
[6]
  total protein half-life in vivo: 2.89 ± 0.2 h
[7]
  total protein half-life in vivo: 6.45 ± 1 h
[8]
  total protein half-life in vivo: 9.6 ± 0.32 h
[9]
  total protein half-life in vivo: 4.77 ± 0.15 h
[10]
  total protein half-life in vivo: 8.44 ± 1.3 h
[11]
  total protein half-life in vivo: 5.08 ± 0.49 h
[12]
  total protein half-life in vivo: 10.2 ± 0.27 h

## MTMNSFERRNKIIQLVNEQGTVLVQDLAGVFAASEATIRADLRFLEQKGVVTRFHGGAAKIMSGNSETETQEVGFKERFQLASAPKNRIAQAAVKMIHEGMTDPTHVIWTQA
[1]
  total protein half-life in vivo: 5.66 ± 0.27 h
[2]
  total protein half-life in vivo: 5.64 ± 0.21 h
[3]
  total protein half-life in vivo: 5.7 ± 0.13 h
[4]
  total protein half-life in vivo: 5.59 ± 0.61 h
[5]
  total protein half-life in vivo: 6.1 ± 0.52 h
[6]
  total protein half-life in vivo: 2.9 ± 0.17 h
[7]
  total protein half-life in vivo: 5.62 ± 0.3 h
[8]
  total protein half-life in vivo: 12.4 ± 2.1 h
[9]
  total protein half-life in vivo: 5.69 ± 0.26 h
[10]
  total protein half-life in vivo: 11.3 ± 1.8 h
[11]
  total protein half-life in vivo: 5.95 ± 0.17 h
[12]
  total protein half-life in vivo: 11.5 ± 0.23 h

## MTMSLEVFEKLEAKVQQAIDTITLLQMEIEELKEKNNSLSQEVQNAQHQREELERENNHLKEQQNGWQERLQALLGRMEEV [P0AF36]
[1]
  total protein half-life in vivo: 7.42 ± 0.15 h
[2]
  total protein half-life in vivo: 5.62 ± 0.36 h
[3]
  total protein half-life in vivo: 3.23 h
[4]
  total protein half-life in vivo: 4.06 ± 0.25 h
[5]
  total protein half-life in vivo: 3.08 ± 0.33 h
[6]
  total protein half-life in vivo: 2.8 ± 0.15 h
[7]
  total protein half-life in vivo: 5.01 ± 0.5 h
[8]
  total protein half-life in vivo: 8.02 ± 1.9 h
[9]
  total protein half-life in vivo: 2.88 ± 0.047 h
[10]
  total protein half-life in vivo: 5.13 ± 2.1 h
[11]
  total protein half-life in vivo: 4.53 h
[12]
  total protein half-life in vivo: 8.35 ± 0.092 h

## MTMTRLKISKTLLAVMLTSAVATGSAYAENNAQTTNESAGQKVDSSMNKVGNFMDDSAITAKVKAALVDHDNIKSTDISVKTDQKVVTLSGFVESQAQAEEAVKVAKGVEGVTSVSDKLHVRDAKEGSVKGYAGDTATTSEIKAKLLADDIVPSRHVKVETTDGVVQLSGTVDSQAQSDRAESIAKAVDGVKSVKNDLKTK [P0AFH8]
[1]
  total protein half-life in vivo: 3.62 ± 0.17 h
[2]
  total protein half-life in vivo: 4.7 ± 0.28 h
[3]
  total protein half-life in vivo: 5.73 ± 0.24 h
[4]
  total protein half-life in vivo: 5.7 ± 0.33 h
[5]
  total protein half-life in vivo: 5.25 ± 0.3 h
[6]
  total protein half-life in vivo: 2.96 ± 0.067 h
[7]
  total protein half-life in vivo: 5.39 ± 0.2 h
[8]
  total protein half-life in vivo: 8.26 ± 2.2 h
[9]
  total protein half-life in vivo: 5.5 ± 0.26 h
[10]
  total protein half-life in vivo: 11.3 ± 0.17 h
[11]
  total protein half-life in vivo: 4.9 ± 0.15 h
[12]
  total protein half-life in vivo: 9.28 ± 0.88 h
